Measurements published in patent publication US8624002B2, “Prostaglandin E2 binding proteins and uses thereof” (AbbVie, Inc., priority 2008, dated 2014).

Legend:
[1] = test system: carrageenan-induced paw edema; test: Carrageenan-induced footpad edema model; format: in vivo, C57.BL/6 mice; conditions: 3 mg/kg, p.o.
Procedure: Carrageenan-Induced Footpad Edema is an acute rodent model of innate immune function. The in vivo efficacy of mouse anti-PGE2 antibody 2B5-8.0 is assessed in a carragenan-induced paw edema model. The induction of paw inflammation with carrageenan is performed similarly as previously described (Joseph P. Portanova, et al. J. Exp. Med. 184: 883-891 (1996)). Intradermal (ID) injection of an inflammatory agent causes a rapid influx of neutrophils and fluid edema which peaks at approximately 4 hours, followed by an influx of macrophages and monocytes which peaks at approximately 48 hours. C57.BL/6 mice (8-10-week-old, Jackson Laboratories, Bar Harbor, Me.) were injected ID in the rear footpad with 30 μL of either PBS (left) or λ-carrageenen (Sigma Aldrich, St. Louis, Mo.) in PBS (right) at a concentration of 5.0 mg/mL (150 μg/mouse). Rear footpad thickness was measured by Dyer spring caliper model #310-119 at baseline (time=0), and 4 hours post carrageenan challenge. Significant difference for paw thickness was determined by comparing mean paw swelling for each treatment group to vehicle in a Student's two-tailed t-test. Mice were given a dose titration of an anti-PGE2 antibody (2B5-8.0) intraperitonially (IP) 18 hours prior to carrageenan challenge, or Indomethacin, PO 2 hours prior to challenge. The endpoint measured was the difference in paw swelling (edema) between right and left paws 4 hours after treatment.

[2] = Capillary zone electrophoresis; format: physicochemical; conditions: running buffer pH 5.5; compared with Hu2B5.2, Hu2B5.4, Hu2B5.6, Hu2B5.8
Excerpt: Capillary zone electrophoresis is a capillary electrophoresis method in which the capillary is filled with buffer and the separation mechanism is based on differences in electrophoretic mobility of the analyte through the buffer. The electrophoretic mobility of a molecule is related to the charge-to-size ratio. A Beckman-Coulter ProteomeLab PA 800 (Beckman Coulter, Fullerton, Calif.) was used for the CZE analysis. A neutral capillary (eCAP neutral, 56 cm total length, 50 μm I. D. Beckman-Coulter, P/N 477441, Fullerton, Calif.) was used. The method used a 30.2 cm capillary with a detection window 20.2 cm from the sample introduction inlet. The running buffer was 100 mM EACA (6-Aminocaproic acid, Sigma A7824-100 G, St. Louis, Mo.) with 0.1% MC (from 1% Methylcellulose solution, Convergent Bioscience, cat# 101876, Toronto, ON, Canada), pH 5.5.

[3] = ^3H-PGE2 competition ELISA (prostaglandin selectivity); format: binding
Procedure: Alternatively, prostaglandin selectivity was determined using a ^3H-PGE2 competition ELISA. Plates were coated with 50 μL/well of 5 μg/ml of goat anti-human IgG (Fc) (Thermo Scientific # 31170, Hudson, N.H.) or goat anti-mouse IgG (Fc) (Thermo Scientific # 31125, Hudson, N.H.) in PBS and incubated overnight at 4° C. The following day plates were flicked and blotted dry. Plates were blocked with 200 μL/well of Superblock (Thermo Scientific # 37515, Hudson, N.H.), 1 hour at room temperature. Plates were flicked and blotted dry. Monoclonal antibodies were diluted to 0.04 μg/ml in PBST (Abbott Bioresearch Center, Worcester, Mass.)/10% Superblock and 50 μL of each was added to each well (2 ng/well) of the pre-blocked ELISA plate and incubated for 1 hour at room temperature. Wells were washed 3 times with PBS/0.1% Tween-20. ^3H-PGE2 (Perkin Elmer # NET-428, Waltham, Mass.) was diluted in PBST/10% Superblock to 6 nM (2× stock). Each prostaglandin (Cayman Chemicals, Ann Arbor, Mich.) was prepared in PBST+10% Superblock at various concentrations ranging from 2000 μM (2× stock) to 0.00004 μM (2×). Equal volumes of the ^3H-PGE2 solution and of each prostaglandin dilution were mixed. Fifty microliters of this mixture was then added to each well of the plate and incubated for 1 hour at room temperature. Wells were washed manually 6 times with PBST/10% Superblock and 50 μL of scintillation fluid (Perkin Elmer # 6013621, Waltham, Mass.) added to each well. Plates were read using a TopCount reader (Perkin Elmer, Waltham, Mass.) with a 5 minute count delay. IC50 number was determined using GraphPad Prism 5 (GraphPad Software, La Jolla, Calif.). The cross reactivity index was then calculated by IC50 of PGE2/IC50 of other prostaglandin(s)

[4] = Pharmacokinetics of hu2B5.7 and hu2B5.4 in Sprague-Dawley rats; format: in vivo; conditions: male Sprague-Dawley rats, IV 4 mg/kg
Procedure: Pharmacokinetic parameters were calculated by non-compartmental analysis using WinNonlin.
MSD streptavidin plates (Meso Scale Discovery) were washed with phosphate buffered saline containing 0.05% Tween-20 (diluted from 10×PBS, Abbott Bioresearch Center, Media Room, Worcester, Mass. and Tween-20, Sigma, St. Louis, Mo.). Plates were blocked with 250 μL/well blocking solution (MSD Block, Meso Scale Discovery, diluted to 3% final concentration in PBS) for 1 hour, covered, with shaking (600 rpm) at room temperature. After washing, 70 μL of biotinylated PGE2 (Prostoglandin E2-biotinamide, Cayman Chemical, Ann Arbor, Mich., cat# 10006987, lot# 190831-191028; 0.01 ug/mL in assay buffer) was added to each well. The plates were covered and incubated with shaking (600 rpm) for 1 hour at room temperature.
Prior to analysis, rat serum samples were thawed on ice, mixed gently, and centrifuged at 14,000 rpm for 3 minutes at 4° C. in an eppendorf centrifuge. Standard curve and control samples were prepared in rat serum. Tecan Evo automated liquid handling station was used to dilute standard curve, high, medium, and low controls, and serum samples in assay buffer, keeping 1% final serum concentration constant. MSD plates were washed again and study samples, standard curve samples and blanks, as well as high, medium, and low controls were added (70 μL/well). The plates were covered, and incubated for 1 hour with shaking (600 rpm) at room temperature.
After incubation, the MSD plates were washed, and 70 μL sulfo-tagged goat anti-human IgG (Meso Scale Discovery; diluted to 1 ug/mL in assay buffer) was added to each well. The MSD plates were covered, and incubated with shaking (600 rpm) for 1 hour at room temperature, then the plates were washed and developed with 2× Read Buffer (Meso Scale Discovery). Chemilumeniscence was measured within ten minutes on the MSD Sector Imager 6000.
Standard curves were analyzed using four-parameter logistic fit and sample concentrations were calculated by XLfit4 software version 2.2.1 Build 16, ([…].). Pharmacokinetic parameters were calculated for each animal using Winonlin software version 5.0.1 (Pharsight Corporation, Mountain View, Calif.) by noncompartmental analysis.
Surgically altered jugular vein cannulated, JVC) male Sprague-Dawley Rats (approximately seven weeks old, weighing 240-390 grams) were purchased from Charles River Laboratories (Wilmington, Mass.). The animals were housed in rooms maintained at constant temperature and humidity under a 12 hour light/dark cycle, fed with normal rodent chow and were allowed food and water ad libitum. Hydration and clinical conditions of the animals were monitored daily.
0.2 mL blood samples were collected from the rats at various timepoints, allowed to clot for 30 minutes at room temperature, centrifuged for 3 minutes at 13,200 rpm, the serum transferred to eppendorf tubes and stored frozen at −80° C.

[5] = Biotin-PGE2 ELISA (PGE2-biotinamide binding to captured IgG)
[6] = test system: PGE2 induced Ca++ influx in HEK293 Gα16 cells stably transfected with human EP4 receptor; test: EP4 bioassay: PGE2 induced Ca++ flux (FLIPR); format: cell-based; conditions: PGE2 25 pm; read-out: IC50 (pM) @ PGE2 25 pm Cellular Potency in EP4 assay
Procedure: The ability of anti-PGE2 antibody to inhibit cellular response of PGE2 in vitro was determined in a Ca^++ flux assay in HEK293 Gα16 cells (Abbott Bioresearch Center, Worcester, Mass.) stably transfected with human EP4 receptor. In brief, an expression plasmid encoding one of the four human PGE2 receptors, EP4, and an expression plasmid encoding Gα16, were co-transfected into human embryonic kidney cell line 293 cells (ATCC# CRL1573, Manassas, Va.). The stable clones co-expressing both human EP4 and Gα16 protein were selected using standard methods (Joseph Sambrook and David W. Russell. Molecular Cloning: A Laboratory Manual Publisher. Published by Cold Spring Harbor Laboratory Press, 2001) and used for the EP4 bioassay. The HEK293 Gα16 cells were plated in black/clear poly-D-lysine plates (Corning #3667, Corning, N.Y.) and incubated with a Ca^++-sensitive dye (Molecular Devices, Sunnyvale, Calif.) for 90 minutes. Stock PGE2 (in 200 proof ethanol) was diluted with FLIPR buffer [containing 1×HBSS (Invitrogen Carlsbad, Calif.), 20 mM HEPES (Invitrogen Carlsbad, Calif.), 0.1% BSA (Sigma, St. Louis, Mo.) and 2.5 mM Probenecid (Sigma, St. Louis, Mo.)]. Anti-PGE2 antibodies or isotype matched control antibodies were also pre-diluted in FLIPR buffer. 25 μl of PGE2 or pre-incubated PGE2/antibody mixture was added to the wells pre-plated with cells. The dose response of PGE2 was determined on a serial titration of PGE2 and using FLIPR1 or Tetra (Molecular Devices, Sunnyvale, Calif.) and EC50 was determined using GraphPad Prism 5 (GraphPad Software, La Jolla, Calif.). […] Ca^++ flux was monitored using FLIPR1 and data was analyzed using GraphPad Prism 5 (GraphPad Software, La Jolla, Calif.).

prostaglandin binding specificity in ^3H-PGE2 competition ELISA [3]	EC50 [5] [pM]	Molecule	Δ Paw Swelling (mm) ([1]; 2 hours prior to challenge, 4 hours post challenge)	% Inhibition ([1]; paw swelling 4 hours post challenge) [%]	migration in capillary zone electrophoresis [2]	AUC0-∞ [4] [µg·h/mL]	CL [4] [mL/day/kg]	MRT [4] [days]	T½ [4] [days]	Vss [4] [L/kg]	Vz [4] [L/kg]	IC50 [6] [pM]
–	–	COc1ccc2c(c1)c(CC(=O)O)c(C)n2C(=O)c1ccc(Cl)cc1 [Indomethacin, reference compound]	0.486 ± 0.03	57 ± 3.5	–	–	–	–	–	–	–	–
demonstrated specificity to PGE2	79	Hu2B5.7: humanized 2B5-8.0; VH SEQ ID NO 72, VL SEQ ID NO 73 (antibody, V domains shown) VH: EVQLVQSGAEVKKPGASVKVSCKASGYTFTKYWLGWVRQAPGQGLEWMGDIYPGYDYTHYNEKFKDRVTLTTDTSTSTAYMELRSLRSDDTAVYYCARSDGSSTYWGQGTLVTVSS VL: DVLMTQTPLSLPVTPGEPASISCTSSQNIVHSNGNTYLEWYLQKPGQSPQLLIYKVSNRFSGVPDRFSGSGSGTDFTLKISRVEAEDVGVYYCFQVSHVPYTFGGGTKVEIKR	–	–	migrated more basic	9900 ± 1800	9.84 ± 1.7	16.8 ± 1.0	12.4	0.165 ± 0.0198	0.176 ± 0.0308	78
–	37	Hu2B5.5: humanized 2B5-8.0; VH SEQ ID NO 68, VL SEQ ID NO 69 (antibody, V domains shown) VH: EVQLVQSGAEVKKPGASVKVSCKASGYTFTKYWLGWVRQAPGQGLEWMGDIYPGYDYTHYNEKFKDRVTLTTDTSTSTAYMELRSLRSDDTAVYYCARSDGSSTYWGQGTLVTVSS VL: DVVMTQTPLSLPVTPGEPASISCTSSQNIVHSNGNTYLEWYLQKPGQSPQLLIYKVSNRFSGVPDRFSGSGSGTDFTLKISRVEAEDVGVYYCFQVSHVPYTFGGGTKVEIKR	–	–	migrated more basic	–	–	–	–	–	–	47
